According to patent publication US20170260258A1:

How the values were obtained:
[1] = target: KR127 antibody (murine monoclonal antibody)
[2] = target: humanized antibody HzKR127-3.1
[3] = target: humanized antibody HzKR127-3.2
[4] = target: humanized antibody HzKR127-3
Sequence of humanized antibody HzKR127-3 (VH, as listed by the source limits assumed, chain 1 of 2): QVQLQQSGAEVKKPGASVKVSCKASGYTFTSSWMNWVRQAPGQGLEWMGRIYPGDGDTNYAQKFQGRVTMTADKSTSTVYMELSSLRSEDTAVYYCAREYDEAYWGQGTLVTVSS
Sequence of humanized antibody HzKR127-3 (VL, as listed by the source limits assumed, chain 2 of 2): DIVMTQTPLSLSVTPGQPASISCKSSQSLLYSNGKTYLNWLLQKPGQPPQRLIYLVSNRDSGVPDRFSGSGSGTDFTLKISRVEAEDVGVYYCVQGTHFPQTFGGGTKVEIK

Sequence of GST-pre-S1 (1st to 56th amino acids) protein (P08515 whole entry): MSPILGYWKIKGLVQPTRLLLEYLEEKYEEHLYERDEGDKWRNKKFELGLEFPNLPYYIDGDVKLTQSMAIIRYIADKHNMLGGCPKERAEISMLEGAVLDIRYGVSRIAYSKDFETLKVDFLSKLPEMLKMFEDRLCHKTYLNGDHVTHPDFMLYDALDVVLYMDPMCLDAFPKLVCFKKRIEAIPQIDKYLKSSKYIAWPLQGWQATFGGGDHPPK
Sequence of humanized antibody HzKR127-3.2 (VH, as listed by the source, chain 1 of 2): as the sequence (VH, as listed by the source limits assumed, chain 1 of 2) above, with N59S, D101A counted along it
Sequence of humanized antibody HzKR127-3.2 (VL, as listed by the source, chain 2 of 2): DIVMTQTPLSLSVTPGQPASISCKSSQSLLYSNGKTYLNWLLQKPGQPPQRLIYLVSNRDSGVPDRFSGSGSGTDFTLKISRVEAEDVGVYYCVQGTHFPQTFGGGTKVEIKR
Sequence of humanized antibody HzKR127-3.1 (VH, as listed by the source, chain 1 of 2): as the sequence (VH, as listed by the source limits assumed, chain 1 of 2) above, with D101A counted along it
Sequence of KR127 antibody (murine monoclonal antibody) (VH, as listed by the source, chain 1 of 2): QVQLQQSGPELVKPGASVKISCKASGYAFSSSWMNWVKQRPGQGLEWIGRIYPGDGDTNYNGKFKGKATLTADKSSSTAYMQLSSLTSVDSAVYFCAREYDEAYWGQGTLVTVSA
Sequence of KR127 antibody (murine monoclonal antibody) (VL, as listed by the source, chain 2 of 2): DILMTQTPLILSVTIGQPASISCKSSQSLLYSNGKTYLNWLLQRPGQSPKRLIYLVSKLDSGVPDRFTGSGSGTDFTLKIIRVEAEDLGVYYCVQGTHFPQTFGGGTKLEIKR

GST-pre-S1 (1st to 56th amino acids) protein (from UniProt P08515 1-218)
IC50 (read off the curve) [1]: 20 nM | IC50 (read off the curve) [2]: 6 nM | IC50 (read off the curve) [3]: 2 nM | IC50 (read off the curve) [4]: 30 nM
